# B1: DAP BII (Pseudoxanthomonas mexicana) (protein)
# chain: GEGMWVPQQLPEIAGPLKKAGLKLSPQQISDLTGDPMGAVVALGGCTASFVSPNGLVVTNHHCAYGAIQLNSTAENNLIKNGFNAPTTADEVSAGPNARVFVLDEITDVTKDAKAAIAAAGDDALARTKALEAFEKKLIADCEAEAGFRCRLYSFSGGNTYRLFKNLEIKDVRLAYAPPGSVGKFGGDIDNWMWPRHTGDFAFYRAYVGKDGKPAAFSKDNVPYQPKHWLKFADQPLGAGDFVMVAGYPGSTNRYALAAEFDNTAQWTYPTIARHYKNQIAMVEAAGKQNADIQVKYAATMAGWNNTSKNYDGQLEGFKRIDAAGQKLREEAAVLGWLKGQGAKGQPALDAHAKLLDLLEQSKATRDRDLTLALFNNTAMLGSATQLYRLSIEREKPNAERESGYQERDLPAIEGGLKQLERRYVAAMDRQLQEYWLNEYIKLPADQRVAAVDAWLGGNDAAAVKRALDRLAGTKLGSTEERLKWFAADRKAFEASNDPAIQYAVAVMPTLLKLEQERKTRAGENLAARPVYLQALADYKKSQGEFVYPDANLSLRITFGNVMGYAPKDGMEYTPFTTLEGVVAKETGQDPFDSPKALLDAVAAKRYGGLEDKRIGSVPVNYLSDLDITGGNSGSPVLDAHGKLVGLAFDGNWESVSSNWVFDPKMTRMIAVDGRYLRWIMQEVYPAPQLLKEMNVGK
# Substrate: NCC(=O)N[C@@H](Cc1ccccc1)C(=O)Nc1ccc([N+](=O)[O-])cc1
# Assay: purified protein
# Conditions: wild type; conditions of the Km measurement not told
protein,measurement,value
B1,Km,1400 µM
